Test results: US20120039904A1 (Kyowa Kirin, published 2012)

Experiments:
[1] = target: T1, human ASCT2 (system ASC amino acid transporter 2), endogenous on human tumour cell lines (human, UniProt Q15758 1-541); experiment: flow cytometry on KMS-11 cells
T1 construct: Endogenous ASCT2 of cell lines KMS-11 (stated to express ASCT2 mRNA), WiDr and OPM-2; also called SLC1A5; ASCT2 on KMS-11, OPM-2, WiDr cells
T1 sequence: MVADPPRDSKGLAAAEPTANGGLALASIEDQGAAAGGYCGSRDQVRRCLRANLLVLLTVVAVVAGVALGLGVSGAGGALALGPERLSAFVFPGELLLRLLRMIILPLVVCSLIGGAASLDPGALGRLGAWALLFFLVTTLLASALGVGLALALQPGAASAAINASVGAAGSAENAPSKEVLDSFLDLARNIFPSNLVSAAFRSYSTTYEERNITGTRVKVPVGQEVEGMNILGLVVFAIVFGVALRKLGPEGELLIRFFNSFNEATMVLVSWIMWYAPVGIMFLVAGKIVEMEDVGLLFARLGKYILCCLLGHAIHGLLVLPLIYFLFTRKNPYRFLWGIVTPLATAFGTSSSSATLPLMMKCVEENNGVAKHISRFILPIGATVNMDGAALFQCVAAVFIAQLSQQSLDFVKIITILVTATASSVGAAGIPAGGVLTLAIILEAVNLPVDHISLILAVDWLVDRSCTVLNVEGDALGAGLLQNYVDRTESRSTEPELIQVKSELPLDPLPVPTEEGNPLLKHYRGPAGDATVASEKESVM

[2] = target: T2, mouse EL2 type ASCT2-myc/His (mouse/human chimeric ASCT2), expressed on CHO cells (human/mouse chimera); experiment: flow cytometry on mEL2/CHO cells; '-' represents the absence of reactivity
T2 construct: also called mEL2/CHO; mEL2
T2 chain: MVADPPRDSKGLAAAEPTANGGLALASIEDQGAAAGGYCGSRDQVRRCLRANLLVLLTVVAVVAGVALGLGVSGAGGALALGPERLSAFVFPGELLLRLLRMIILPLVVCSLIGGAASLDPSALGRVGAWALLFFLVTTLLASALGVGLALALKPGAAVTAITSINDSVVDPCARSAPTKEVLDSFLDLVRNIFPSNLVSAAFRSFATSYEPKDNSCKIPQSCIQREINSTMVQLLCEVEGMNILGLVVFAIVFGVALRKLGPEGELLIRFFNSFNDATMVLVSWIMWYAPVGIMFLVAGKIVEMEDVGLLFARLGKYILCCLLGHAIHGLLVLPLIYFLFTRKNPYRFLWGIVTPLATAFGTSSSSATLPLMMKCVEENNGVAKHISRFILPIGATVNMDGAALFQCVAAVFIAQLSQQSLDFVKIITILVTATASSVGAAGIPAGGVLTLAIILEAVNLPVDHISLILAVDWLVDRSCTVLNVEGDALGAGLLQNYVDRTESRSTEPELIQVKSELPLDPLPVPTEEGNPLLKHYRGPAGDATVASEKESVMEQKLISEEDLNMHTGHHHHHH
Protocol: (§1) Using the mouse ASCT2/CHO and mouse/human chimeric ASCT2/CHO cells constructed in Examples 10 and 11 and FITC-labeled anti-mouse immunoglobulin G (H+L) (manufactured by Dako) or ALEXA488-labeled anti-rat immunoglobulin G […] (manufactured by Invitrogen) as the secondary antibody, the reactivity of anti-ASCT2 monoclonal antibodies KM4008, KM4012 and KM4018 was measured in the same manner as in Example 9(1).
(§2) In Table 2, the symbols “+”, “−”, and “±” represent the presence of reactivity, the absence of reactivity, and the decrease in reactivity, respectively.

[3] = target: T3, human ASCT2-myc/His (fusion protein in which myc/His was added to the C-terminal of human ASCT2), expressed … (human, UniProt Q15758 1-541); experiment: flow cytometry on human ASCT2/CHO cells; '+' = presence of reactivity
T3 construct: Amino acid transporter with C-terminal myc/His tag, stably expressed in CHO/DG44 cells; cell lysates of these cells were used for Western blotting and immunoprecipitation; also called ASCT2/CHO; human ASCT2-myc/His gene-introduced CHO cell
T3 sequence: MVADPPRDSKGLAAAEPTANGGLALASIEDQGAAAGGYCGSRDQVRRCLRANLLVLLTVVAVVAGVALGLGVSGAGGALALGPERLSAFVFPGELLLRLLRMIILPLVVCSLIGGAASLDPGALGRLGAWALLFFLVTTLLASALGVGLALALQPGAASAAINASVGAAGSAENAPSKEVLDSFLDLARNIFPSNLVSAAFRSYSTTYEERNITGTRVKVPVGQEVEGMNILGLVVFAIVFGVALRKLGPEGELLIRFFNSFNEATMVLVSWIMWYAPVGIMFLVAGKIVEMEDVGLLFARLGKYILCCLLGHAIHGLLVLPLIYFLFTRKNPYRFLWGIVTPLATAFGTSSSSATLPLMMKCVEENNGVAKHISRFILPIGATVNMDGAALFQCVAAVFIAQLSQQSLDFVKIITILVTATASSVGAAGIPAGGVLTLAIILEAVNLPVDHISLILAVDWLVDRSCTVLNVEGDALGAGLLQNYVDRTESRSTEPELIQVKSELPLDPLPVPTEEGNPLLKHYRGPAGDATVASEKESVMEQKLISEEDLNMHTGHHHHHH

[4] = target: T4, mouse ASCT2-myc/His, expressed on CHO cells (mouse, UniProt P51912 1-553); experiment: flow cytometry on mouse ASCT2/CHO cells; '-' represents the absence of reactivity
T4 construct: also called mouse ASCT2/CHO
T4 sequence: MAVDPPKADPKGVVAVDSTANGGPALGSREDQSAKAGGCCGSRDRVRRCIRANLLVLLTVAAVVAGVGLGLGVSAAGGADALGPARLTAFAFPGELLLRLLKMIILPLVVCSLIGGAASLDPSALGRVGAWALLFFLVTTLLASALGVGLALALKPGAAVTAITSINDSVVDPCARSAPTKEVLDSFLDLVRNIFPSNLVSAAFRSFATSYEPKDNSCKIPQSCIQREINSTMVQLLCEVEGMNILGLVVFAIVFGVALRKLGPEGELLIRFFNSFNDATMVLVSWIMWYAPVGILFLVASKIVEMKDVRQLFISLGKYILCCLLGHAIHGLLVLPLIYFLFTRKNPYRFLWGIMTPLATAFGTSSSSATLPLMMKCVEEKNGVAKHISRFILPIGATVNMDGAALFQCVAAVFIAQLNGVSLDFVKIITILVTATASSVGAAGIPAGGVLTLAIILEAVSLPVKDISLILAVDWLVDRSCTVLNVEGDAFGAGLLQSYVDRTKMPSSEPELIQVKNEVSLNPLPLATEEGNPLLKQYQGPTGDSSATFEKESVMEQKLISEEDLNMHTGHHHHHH
Protocol: as §1, §2

[5] = target: T5, mouse EL4 type ASCT2-myc/His (mouse/human chimeric ASCT2), expressed on CHO cells (human/mouse chimera, UniProt Q15758 1-541); experiment: flow cytometry on mEL4/CHO cells; '+' = presence of reactivity
T5 construct: also called mEL4/CHO; mEL4
T5 sequence: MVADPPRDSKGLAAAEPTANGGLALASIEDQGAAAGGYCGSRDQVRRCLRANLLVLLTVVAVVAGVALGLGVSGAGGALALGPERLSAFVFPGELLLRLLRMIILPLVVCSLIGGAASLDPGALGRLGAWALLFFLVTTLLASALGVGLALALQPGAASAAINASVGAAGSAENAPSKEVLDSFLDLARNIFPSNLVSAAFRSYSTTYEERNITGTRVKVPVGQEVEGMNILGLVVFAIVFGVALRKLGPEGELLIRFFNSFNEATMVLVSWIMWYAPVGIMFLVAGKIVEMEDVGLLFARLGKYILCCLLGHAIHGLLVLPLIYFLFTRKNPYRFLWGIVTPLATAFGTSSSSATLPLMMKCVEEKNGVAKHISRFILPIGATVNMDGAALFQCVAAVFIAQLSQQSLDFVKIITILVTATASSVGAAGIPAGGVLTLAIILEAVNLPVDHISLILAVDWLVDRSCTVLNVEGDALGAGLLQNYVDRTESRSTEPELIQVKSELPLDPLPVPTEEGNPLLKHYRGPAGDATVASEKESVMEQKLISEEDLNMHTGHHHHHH
Protocol: as §1, §2

binding result [1]: binds
binding result [2]: no binding
binding result [3]: binds
binding result [4]: no binding
binding result [5]: binds
B1: anti-ASCT2 monoclonal antibody KM4018 (antibody, rat IgG2a, V domains shown)
VH: EVQLVESGGGLVQSGRSIRLSCAASGFSFSNYYMAWVRQAPSKGLEWVASITKGGGNTYYRDSVKGRFTFSRDNAKSTLYLQMDSLRSEDTATYYCARQVTIAAVSTSYFDSWGQGVMVTVSS
VL: DIVLTQSPALAVSLGQRATISCKTNQKVDYYGNSYVYWYQQKPGQQPKLLIYLASNLASGIPARFSGRGSGTDFTLTIDPVEADDTATYYCQQSRNLPYTFGAGTKLELKR
notes: rat IgG2a, kappa
